Assays:
human ICOSL (human) = molecular target: T1, human ICOSL (human); assay: flow cytometry, cells expressing human ICOSL
T1 sequence: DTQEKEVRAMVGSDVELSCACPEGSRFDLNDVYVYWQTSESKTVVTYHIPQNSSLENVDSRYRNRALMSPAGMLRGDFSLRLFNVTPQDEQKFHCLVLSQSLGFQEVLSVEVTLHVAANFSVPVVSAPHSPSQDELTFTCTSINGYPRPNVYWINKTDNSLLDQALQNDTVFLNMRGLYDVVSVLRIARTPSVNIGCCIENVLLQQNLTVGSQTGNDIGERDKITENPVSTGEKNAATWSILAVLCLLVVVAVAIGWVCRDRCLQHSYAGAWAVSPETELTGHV

human PD-1 (human) [1] = molecular target: human PD-1 (human) (UniProt Q15116); assay: flow cytometry, cells expressing PD-1, 20 nM
CD80 (human) [2] = assay: flow cytometry, cells expressing CD80, 20 nM
CD86 (human) = CD86 (human) (UniProt P42081); assay: flow cytometry, cells expressing the partner
CD80 (human) [3] = molecular target: CD80 (human) (UniProt P33681); assay: flow cytometry, cells expressing the partner
Chain of CD80 (human) (UniProt P33681) (P33681 35-288): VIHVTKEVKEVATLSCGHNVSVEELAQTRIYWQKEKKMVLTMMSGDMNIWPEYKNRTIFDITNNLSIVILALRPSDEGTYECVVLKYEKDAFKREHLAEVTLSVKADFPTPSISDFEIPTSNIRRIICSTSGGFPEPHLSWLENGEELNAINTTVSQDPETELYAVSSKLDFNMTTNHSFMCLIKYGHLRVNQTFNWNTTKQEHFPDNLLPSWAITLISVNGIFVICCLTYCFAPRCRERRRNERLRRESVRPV

ICOSL (human) = molecular target: T2, ICOSL (human) (UniProt O75144); assay: flow cytometry, cells expressing the partner
T2 sequence: T1 sequence

CD28 (human) = CD28 (human) (UniProt P10747); assay: flow cytometry on HEK293 cells transfected with CD28
CD96 (human) [4] = molecular target: T3, CD96 (human) (UniProt P40200); assay: flow cytometry on transfected HEK293 cells, 100 nM
T3 sequence: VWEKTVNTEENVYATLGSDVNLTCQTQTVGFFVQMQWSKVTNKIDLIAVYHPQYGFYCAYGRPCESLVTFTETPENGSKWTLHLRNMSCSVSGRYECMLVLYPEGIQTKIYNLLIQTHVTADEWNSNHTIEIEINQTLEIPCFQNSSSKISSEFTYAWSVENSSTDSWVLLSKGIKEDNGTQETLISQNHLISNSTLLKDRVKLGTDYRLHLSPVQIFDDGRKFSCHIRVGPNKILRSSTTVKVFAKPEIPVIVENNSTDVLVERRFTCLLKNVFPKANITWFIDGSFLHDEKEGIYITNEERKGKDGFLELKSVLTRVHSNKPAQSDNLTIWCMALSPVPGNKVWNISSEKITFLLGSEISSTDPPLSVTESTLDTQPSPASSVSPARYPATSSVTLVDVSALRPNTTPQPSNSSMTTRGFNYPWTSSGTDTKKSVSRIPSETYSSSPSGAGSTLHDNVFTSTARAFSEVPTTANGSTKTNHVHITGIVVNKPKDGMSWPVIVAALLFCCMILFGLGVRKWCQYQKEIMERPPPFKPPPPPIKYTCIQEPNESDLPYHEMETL

TIGIT (human) [5] = molecular target: T4, TIGIT (human) (UniProt Q495A1); assay: flow cytometry on transfected HEK293 cells, 100 nM
T4 sequence: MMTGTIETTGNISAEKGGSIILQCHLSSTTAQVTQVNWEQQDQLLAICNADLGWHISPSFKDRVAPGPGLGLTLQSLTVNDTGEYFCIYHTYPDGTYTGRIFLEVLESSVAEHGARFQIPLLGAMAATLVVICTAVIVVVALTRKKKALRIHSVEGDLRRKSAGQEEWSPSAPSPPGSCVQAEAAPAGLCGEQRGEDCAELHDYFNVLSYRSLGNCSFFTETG

TIGIT (human) [6] = molecular target: T4, TIGIT (human); assay: flow cytometry, TIGIT-transfected Expi293 cells
CD96 (human) [7] = molecular target: T3, CD96 (human); assay: flow cytometry, CD96-transfected Expi293 cells
CD226 (human) [8] = molecular target: T5, CD226 (human) (UniProt Q15762); assay: flow cytometry, CD226-transfected Expi293 cells
T5 sequence: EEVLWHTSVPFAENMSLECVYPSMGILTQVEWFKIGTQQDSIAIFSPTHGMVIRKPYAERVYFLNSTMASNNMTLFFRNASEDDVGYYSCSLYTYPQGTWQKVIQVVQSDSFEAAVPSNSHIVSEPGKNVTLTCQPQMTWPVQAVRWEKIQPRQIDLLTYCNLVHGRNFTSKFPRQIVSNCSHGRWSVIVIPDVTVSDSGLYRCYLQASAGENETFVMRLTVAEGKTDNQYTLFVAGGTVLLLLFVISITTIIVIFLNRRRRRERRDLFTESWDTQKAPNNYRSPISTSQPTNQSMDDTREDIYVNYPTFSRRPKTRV

CD96 (human) [9] = molecular target: T3, CD96 (human); assay: flow cytometry, CD96-transfected Expi293 cells; ratio to wild-type CD155
[10] = molecular target: CTLA-4, full-length, expressed on transfected cells (Homo sapiens (Human)) (UniProt P16410); assay: flow cytometry, cells expressing target
Chain of CTLA-4, full-length, expressed on transfected cells (Homo sapiens (Human)) (P16410 36-223): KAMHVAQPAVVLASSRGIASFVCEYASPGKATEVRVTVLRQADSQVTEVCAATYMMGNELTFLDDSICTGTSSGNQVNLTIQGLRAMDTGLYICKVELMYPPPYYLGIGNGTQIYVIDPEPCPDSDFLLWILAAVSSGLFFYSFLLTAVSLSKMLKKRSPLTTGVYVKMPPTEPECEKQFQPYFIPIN

PD-L1 (human) = assay: flow cytometry on HEK293 cells transfected with PD-L1
Chain of PD-L1 (human) (chain, as listed by the source): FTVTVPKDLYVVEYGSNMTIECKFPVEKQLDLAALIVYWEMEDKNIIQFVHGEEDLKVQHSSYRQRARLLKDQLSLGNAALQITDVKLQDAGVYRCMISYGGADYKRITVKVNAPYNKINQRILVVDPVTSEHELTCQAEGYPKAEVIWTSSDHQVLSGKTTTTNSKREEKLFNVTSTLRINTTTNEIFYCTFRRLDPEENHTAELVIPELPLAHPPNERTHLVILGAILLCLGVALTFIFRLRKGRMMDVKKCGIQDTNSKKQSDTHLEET

human PD-1 (human) [11] = molecular target: human PD-1 (human) (UniProt Q15116)
Target sequence in this assay (Q15116 25-288): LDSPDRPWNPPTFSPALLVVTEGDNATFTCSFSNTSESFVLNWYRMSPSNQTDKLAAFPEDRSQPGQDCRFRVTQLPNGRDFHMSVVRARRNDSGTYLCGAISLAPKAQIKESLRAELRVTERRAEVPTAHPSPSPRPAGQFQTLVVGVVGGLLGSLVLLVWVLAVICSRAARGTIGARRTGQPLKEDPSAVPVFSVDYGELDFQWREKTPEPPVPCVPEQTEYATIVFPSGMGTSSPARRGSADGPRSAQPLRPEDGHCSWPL

CD226 (human) [12] = molecular target: T5, CD226 (human); assay: flow cytometry, Fc fusion on Expi293 cells transfected with full-length human CD226
CD226 (human) [13] = molecular target: T5, CD226 (human); assay: flow cytometry, transfected HEK293
CD96 (human) [14] = molecular target: T3, CD96 (human); assay: flow cytometry, transfected HEK293
CD112R (human) = CD112R (human) (UniProt Q6DKI7); assay: flow cytometry, transfected HEK293
Chain of CD112R (human) (Q6DKI7 whole entry): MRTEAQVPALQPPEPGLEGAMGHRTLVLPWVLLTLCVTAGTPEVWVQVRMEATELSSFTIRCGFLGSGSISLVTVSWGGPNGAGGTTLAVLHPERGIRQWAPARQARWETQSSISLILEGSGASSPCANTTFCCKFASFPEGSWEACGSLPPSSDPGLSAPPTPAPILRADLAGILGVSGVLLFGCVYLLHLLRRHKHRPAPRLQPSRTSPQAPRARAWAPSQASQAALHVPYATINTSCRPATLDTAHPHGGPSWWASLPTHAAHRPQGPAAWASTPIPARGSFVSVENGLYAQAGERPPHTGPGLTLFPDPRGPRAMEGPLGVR

TIGIT (human) [15] = molecular target: T4, TIGIT (human); assay: flow cytometry, transfected HEK293
TIGIT (human) [16] = molecular target: T4, TIGIT (human); assay: flow cytometry, Fc fusion on Expi293 cells transfected with full-length human TIGIT
[17] = molecular target: ICOS, full-length, expressed on transfected cells (Homo sapiens (Human)) (UniProt Q9Y6W8); assay: flow cytometry, cells expressing target
Chain of ICOS, full-length, expressed on transfected cells (Homo sapiens (Human)) (Q9Y6W8 21-199 limits assumed): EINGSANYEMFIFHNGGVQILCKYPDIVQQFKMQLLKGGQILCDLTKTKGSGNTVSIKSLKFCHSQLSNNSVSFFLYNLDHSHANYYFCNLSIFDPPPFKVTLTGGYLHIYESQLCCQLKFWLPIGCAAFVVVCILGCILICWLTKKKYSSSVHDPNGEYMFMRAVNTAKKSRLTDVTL

[18] = molecular target: CD28, full-length, expressed on transfected cells (Homo sapiens (Human)) (UniProt P10747); assay: flow cytometry, cells expressing target

Chain of WT CD112 IgV (Fc fusion) (chain): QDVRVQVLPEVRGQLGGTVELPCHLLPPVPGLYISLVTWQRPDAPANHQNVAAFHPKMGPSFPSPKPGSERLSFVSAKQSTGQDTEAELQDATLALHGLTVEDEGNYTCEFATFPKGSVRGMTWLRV
Chain of CD112 ECD-Fc (Fc fusion) (chain): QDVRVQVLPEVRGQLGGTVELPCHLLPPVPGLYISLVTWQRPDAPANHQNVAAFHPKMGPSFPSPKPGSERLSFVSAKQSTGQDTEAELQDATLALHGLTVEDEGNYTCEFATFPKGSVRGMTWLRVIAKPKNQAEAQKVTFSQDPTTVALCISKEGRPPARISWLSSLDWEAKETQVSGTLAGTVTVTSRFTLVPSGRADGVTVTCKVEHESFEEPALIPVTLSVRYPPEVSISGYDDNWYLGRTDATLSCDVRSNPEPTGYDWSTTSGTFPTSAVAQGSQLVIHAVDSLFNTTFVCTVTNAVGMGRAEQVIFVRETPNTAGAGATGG
Chain of Wild Type PD-L2 IgV Fc fusion (chain): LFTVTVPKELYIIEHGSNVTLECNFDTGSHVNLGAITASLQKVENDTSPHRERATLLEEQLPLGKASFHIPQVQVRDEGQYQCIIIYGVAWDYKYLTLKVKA
Chain of WT CD80 ECD-Fc (Fc fusion) (chain): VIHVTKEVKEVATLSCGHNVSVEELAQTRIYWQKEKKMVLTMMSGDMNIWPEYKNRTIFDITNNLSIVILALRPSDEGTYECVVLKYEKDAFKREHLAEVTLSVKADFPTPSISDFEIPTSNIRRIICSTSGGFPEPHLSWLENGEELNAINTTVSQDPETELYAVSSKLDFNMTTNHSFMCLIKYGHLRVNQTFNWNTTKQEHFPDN
Chain of CTLA4-Fc (P16410 37-162 limits assumed): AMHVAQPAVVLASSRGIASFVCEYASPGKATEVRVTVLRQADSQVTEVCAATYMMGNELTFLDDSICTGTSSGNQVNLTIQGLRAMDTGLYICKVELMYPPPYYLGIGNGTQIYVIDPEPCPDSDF

“variant CTLA-4 ECD-Fc G29W/M56T/L98Q/Y105L (Fc fusion)” showed an MFI (human ICOSL (human)) of 612 MFI.

Work on “variant PD-L1 I36T/M97L/A103V/Q155H Fc fusion” yielded an MFI at 20 nM (human PD-1 (human) [1]) of 120 MFI and an MFI at 20 nM (CD80 (human) [2]) of 128 MFI.

Substance “CTLA-4 ECD-Fc L63P/L98Q/Y105L (Fc fusion)” has an MFI (CD86 (human)) of 411000 MFI, an MFI (CD80 (human) [3]) of 4720 MFI and an MFI (ICOSL (human)) of 1800 MFI.

In the case of CTLA-4 ECD-Fc L98Q/Y105L (Fc fusion), the MFI (CD86 (human)) is reported as 685000 MFI, the MFI (CD80 (human) [3]) is reported as 3860 MFI and the MFI (ICOSL (human)) is reported as 1190 MFI.

Work on “variant CTLA-4 ECD-Fc G29W/L98Q/Y105L (Fc fusion)” yielded an MFI (human ICOSL (human)) of 570 MFI.

WT CD80 ECD-Fc (Fc fusion) was tested, and the MFI at 66.6 nM (CD28 (human)) was 24800 MFI.

Substance CD112 ECD-Fc (Fc fusion) has an MFI at 100 nM (CD96 (human) [4]) of 1100 MFI and an MFI at 100 nM (TIGIT (human) [5]) of 29200 MFI.

Work on “CD155 IgV-Fc P18L, L79V, F91S (Fc fusion)” yielded an MFI (TIGIT (human) [6]) of 4070, an MFI (CD96 (human) [7]) of 3280 and an MFI (CD226 (human) [8]) of 5140. It also gave an MFI parental ratio (CD96 (human) [9]) of 1.1.

For ICOSL ECD-Fc N52S/E220G (Fc fusion), the MFI [10] was 1800 MFI.

With Fc Control the MFI at 20 nM (human PD-1 (human) [1]) was 59 MFI and the MFI at 20 nM (CD80 (human) [2]) was 132 MFI.

Variant CD80 S44P/A71D Fc fusion gave an MFI at 22.2 nM (PD-L1 (human)) of 6310 MFI.

With Wild Type PD-L2 IgV Fc fusion the IFN gamma levels pg/mL (MLR) (human PD-1 (human) [11]) was 1380 pg/mL.

For “CTLA4-Fc (from UniProt P16410) (Fc fusion)”, the MFI at 20 nM (CD80 (human) [2]) was 200000 MFI.

Substance CD112 A112V (Fc fusion) has an MFI (CD226 (human) [12]) of 152000 MFI.

With “variant CD112 IgV-Fc Y33H, A112V (Fc fusion)” the MFI at 100 nM (TIGIT (human) [5]) was 20600 MFI.

In the case of WT CD112 IgV (Fc fusion), the MFI at 20 nM (CD226 (human) [13]) is reported as 10800, the MFI at 20 nM (CD96 (human) [14]) is reported as 2500 and the MFI at 20 nM (CD112R (human)) is reported as 1660. For the same substance, the MFI at 20 nM (TIGIT (human) [15]) was 34900.

For CTLA-4 ECD-Fc L63P (Fc fusion), the MFI (CD86 (human)) was 596000 MFI, the MFI (CD80 (human) [3]) was 3930 MFI and the MFI (ICOSL (human)) was 966 MFI.

“variant CTLA-4 ECD-Fc L12F/R16H/G29W/L98Q/Y105L (Fc fusion)” was tested, and the MFI (human ICOSL (human)) was 862 MFI.

In the case of CD112 Y33H, A112V (Fc fusion), the MFI (CD226 (human) [12]) is reported as 231000 MFI and the MFI (TIGIT (human) [16]) is reported as 99000 MFI.

“variant CTLA-4 ECD-Fc G29W/M56T/S72G/L98Q/Y105L (Fc fusion)” gave an MFI (human ICOSL (human)) of 534 MFI.

CD155 IgV-Fc A81V, L83P (Fc fusion) showed an MFI (TIGIT (human) [6]) of 2910 and an MFI (CD96 (human) [7]) of 2620.

In the case of “ICOSL ECD-Fc V11E/N30D/N52H/N57Y/H94E/L96I/L98F/N194D/V210A/I218T (Fc fusion)”, the MFI [10] is reported as 62800 MFI, the parental ratio [10] is reported as 3.55 ratio to WT and the MFI [17] is reported as 180000 MFI. For the same substance, the MFI [18] was 120000 MFI and the parental ratio [18] was 26.8 ratio to WT.

Substance “variant PD-L2 IgV H15Q/T47A/K65R/S67L/Q82R/V89D Fc fusion” has an IFN gamma levels pg/mL (MLR) (human PD-1 (human) [11]) of 1340 pg/mL.
